Literature values in paper PMC2654521.
Where “and” joins values, the source holds several entries; their conditions need not be identical. Equal entries are not always repeated. Where two headings read alike, the source gives them in different places.

What was measured:
[1] = target: N-type calcium channel (Rattus norvegicus) (UniProt Q02294); assay: radioligand
[2] = target: N-type calcium channel (Rattus norvegicus) (UniProt Q02294); assay: radioligand; remark: listed apart in the source

UniProt Q02294, sequence (Q02294 whole entry): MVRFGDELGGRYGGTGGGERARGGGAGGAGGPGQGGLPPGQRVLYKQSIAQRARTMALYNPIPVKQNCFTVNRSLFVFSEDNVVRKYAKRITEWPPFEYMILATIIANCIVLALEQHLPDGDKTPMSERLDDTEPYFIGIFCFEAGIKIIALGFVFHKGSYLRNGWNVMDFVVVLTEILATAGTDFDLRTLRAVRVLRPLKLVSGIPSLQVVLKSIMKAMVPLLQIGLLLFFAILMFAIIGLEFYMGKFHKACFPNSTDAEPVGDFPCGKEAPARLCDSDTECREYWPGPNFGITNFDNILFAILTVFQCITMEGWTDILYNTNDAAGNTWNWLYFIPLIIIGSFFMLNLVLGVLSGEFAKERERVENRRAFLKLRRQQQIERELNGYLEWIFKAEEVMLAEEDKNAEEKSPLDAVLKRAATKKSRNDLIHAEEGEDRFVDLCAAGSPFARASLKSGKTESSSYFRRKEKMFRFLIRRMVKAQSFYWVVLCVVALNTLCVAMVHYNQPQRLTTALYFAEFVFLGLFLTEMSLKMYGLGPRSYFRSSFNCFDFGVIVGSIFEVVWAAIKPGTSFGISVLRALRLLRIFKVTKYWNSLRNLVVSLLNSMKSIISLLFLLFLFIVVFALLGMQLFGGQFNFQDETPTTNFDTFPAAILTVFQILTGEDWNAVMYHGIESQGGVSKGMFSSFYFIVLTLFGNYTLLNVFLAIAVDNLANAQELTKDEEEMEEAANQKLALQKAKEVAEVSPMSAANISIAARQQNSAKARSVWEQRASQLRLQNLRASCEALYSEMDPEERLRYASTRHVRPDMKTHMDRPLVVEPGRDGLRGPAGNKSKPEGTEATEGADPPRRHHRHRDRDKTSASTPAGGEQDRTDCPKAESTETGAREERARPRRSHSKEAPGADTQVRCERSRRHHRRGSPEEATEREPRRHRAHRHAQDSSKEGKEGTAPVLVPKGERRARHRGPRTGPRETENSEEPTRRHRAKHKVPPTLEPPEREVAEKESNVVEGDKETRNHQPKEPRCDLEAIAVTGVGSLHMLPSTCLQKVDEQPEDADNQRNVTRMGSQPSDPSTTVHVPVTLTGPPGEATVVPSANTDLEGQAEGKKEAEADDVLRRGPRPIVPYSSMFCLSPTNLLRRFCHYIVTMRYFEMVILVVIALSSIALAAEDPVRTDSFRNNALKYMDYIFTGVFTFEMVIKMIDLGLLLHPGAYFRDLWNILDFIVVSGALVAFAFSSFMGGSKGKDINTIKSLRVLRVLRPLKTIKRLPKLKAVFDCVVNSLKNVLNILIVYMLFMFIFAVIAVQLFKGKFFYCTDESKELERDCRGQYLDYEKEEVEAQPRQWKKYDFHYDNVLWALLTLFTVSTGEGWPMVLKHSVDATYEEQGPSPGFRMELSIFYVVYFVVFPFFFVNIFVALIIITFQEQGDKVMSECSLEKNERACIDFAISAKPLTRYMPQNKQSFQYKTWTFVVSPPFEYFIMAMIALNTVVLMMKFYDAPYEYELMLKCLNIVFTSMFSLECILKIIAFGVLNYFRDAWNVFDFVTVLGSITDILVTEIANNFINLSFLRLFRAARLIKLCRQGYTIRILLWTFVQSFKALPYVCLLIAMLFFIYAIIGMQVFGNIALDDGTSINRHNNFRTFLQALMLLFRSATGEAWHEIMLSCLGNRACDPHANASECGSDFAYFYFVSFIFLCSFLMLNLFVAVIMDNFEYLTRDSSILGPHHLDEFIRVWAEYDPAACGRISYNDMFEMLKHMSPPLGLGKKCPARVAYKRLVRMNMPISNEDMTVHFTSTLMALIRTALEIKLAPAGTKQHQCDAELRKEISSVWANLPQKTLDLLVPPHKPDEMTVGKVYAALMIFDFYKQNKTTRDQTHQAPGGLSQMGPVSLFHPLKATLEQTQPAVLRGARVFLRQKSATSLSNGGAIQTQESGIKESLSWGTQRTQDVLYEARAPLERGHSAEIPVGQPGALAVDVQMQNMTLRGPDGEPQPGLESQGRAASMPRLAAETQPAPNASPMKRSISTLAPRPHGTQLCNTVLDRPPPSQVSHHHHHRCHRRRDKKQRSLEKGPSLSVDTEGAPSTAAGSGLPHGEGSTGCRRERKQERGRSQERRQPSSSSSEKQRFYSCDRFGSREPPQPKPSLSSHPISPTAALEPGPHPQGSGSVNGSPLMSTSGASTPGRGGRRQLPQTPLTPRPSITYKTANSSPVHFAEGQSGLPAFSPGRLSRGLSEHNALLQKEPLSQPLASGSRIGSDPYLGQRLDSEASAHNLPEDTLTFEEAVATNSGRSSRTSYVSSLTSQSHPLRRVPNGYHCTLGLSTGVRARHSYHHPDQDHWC

## ziconotide (omega-conotoxin MVIIA) (from UniProt P05484)
[1]
  Kd: 1.1 pM and 9 pM
  Ki: 1 pM
[2]
  Kd: 7 pM and 18 pM
